Measured values as given in patent US20030148956A1 (PROCTER AND GAMBLE, published 2003).
Ends that are not written are not given here.

T1: corticotropin releasing factor 2 receptor
T1 sequence (Q13324 whole entry, species assumed, looked up): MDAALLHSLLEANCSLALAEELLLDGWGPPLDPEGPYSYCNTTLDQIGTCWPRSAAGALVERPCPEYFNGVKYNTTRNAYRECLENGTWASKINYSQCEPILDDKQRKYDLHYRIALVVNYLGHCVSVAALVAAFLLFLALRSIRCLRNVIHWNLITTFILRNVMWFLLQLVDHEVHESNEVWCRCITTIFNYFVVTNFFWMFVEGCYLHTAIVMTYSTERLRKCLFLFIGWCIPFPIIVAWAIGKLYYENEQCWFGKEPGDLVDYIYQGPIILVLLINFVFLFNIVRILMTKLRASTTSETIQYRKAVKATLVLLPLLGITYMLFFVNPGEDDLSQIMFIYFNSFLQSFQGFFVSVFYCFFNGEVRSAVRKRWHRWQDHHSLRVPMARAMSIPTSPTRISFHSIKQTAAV


What was measured:
[1] = target: T1, corticotropin releasing factor 2 …; experiment: cell-based or functional assay
[2] = target: corticotropin releasing factor 1 receptor; experiment: cell-based or functional assay

| Binder | CRF2R EC50 [1] | CRF2R Emax % [1] | CRF1R EC50 [2] | CRF1R Emax % [2] |
| --- | --- | --- | --- | --- |
| NDDPPISIDLPLLLLRNMIEMARIENEREQAGLNAKYLAEV-NH2 [SEQ ID NO 268] | 100 nM | 59% | 1000 nM | 14.2% |
| NDDPPISIDLPYYLLRNMIEMARIENEREQAGLNAKYLAEV-NH2 [SEQ ID NO 267] | 100 nM | 44.2% | 1000 nM | 22.8% |
| NDDPPISIDLPLILLRNMIEMARIENEREQAGLNAKYLAEV-NH2 [SEQ ID NO 269] | 100 nM | 77.3% | 1000 nM | 44.3% |
| ZGPPISIDLPFQLLRKVIEIEKQEKEKQQAANNAELLAEI (C-terminal amide) [SEQ ID NO 272] | 23.3 nM | 100% | 1000 nM | 51.1% |
| ZGPPISIDLPIILLRKMIEIEKQEKEKQQAANNARLLARI (C-terminal amide) [SEQ ID NO 290] | 100 nM | 100% | 1000 nM | 6.4% |
| ZGPPISIDLPYQLLRKVIEIEKQEKEKQQAANNRLLLDTI (C-terminal amide) [SEQ ID NO 283] | 10.6 nM | 72% | 635 nM | 100% |
| ZGPPISIDLPFQLLRKVIEIEKQEKEKQQAANNANLLANI (C-terminal amide) [SEQ ID NO 275] | 46.6 nM | 100% | 1000 nM | 38.3% |
| ZGPPISIDLPIFLLRKVIEIEKQEKEKQQAANNARLLARI (C-terminal amide) [SEQ ID NO 281] | 100 nM | 78.8% | 1000 nM | 12.2% |
| ZGPPISIDLPYQLLRKVIEIEKQEKEKQQAANNARLLARI (C-terminal amide) [SEQ ID NO 286] | 13.5 nM | 92.5% | 1000 nM | 19.2% |
| ZGPPISIDLPQILLRKMIEIEKQEKEKQQAANNARLLARI (C-terminal amide) [SEQ ID NO 285] | 13.9 nM | 97.1% | 1000 nM | 11.1% |
| ZGPPISIDLPYWLLRKMIEIEKQEKEKQQAANNARLLARI (C-terminal amide) [SEQ ID NO 289] | 12.2 nM | 97.3% | 1000 nM | 69.5% |
| ZGPPISIDLPFQLLRKVIEIEKQEKEKQQAANNAKLLAKI (C-terminal amide) [SEQ ID NO 274] | 13.8 nM | 100% | 508 nM | 80.9% |
| ZGPPISIDLPFQLLRKVIEIEKQEKEKQQAANNAHLLAHI (C-terminal amide) [SEQ ID NO 277] | 28.2 nM | 100% | 1000 nM | 39.9% |
| ZGPPISIDLPIILLRKVIEIEKQEKEKQQAANNARLLARI (C-terminal amide) [SEQ ID NO 295] | 55 nM | 67.6% | 1000 nM | 5.3% |
| ZGPPISIDLPFQLLRKVIEIEKQEKEKQQAANNARLLDTI (C-terminal amide) [SEQ ID NO 278] | 19.6 nM | 100% | 1000 nM | 48.7% |
| ZGPPISIDLPTWLLRKMIEIEKQEKEKQQAANNARLLARI (C-terminal amide) [SEQ ID NO 292] | 100 nM | 86.1% | 1000 nM | 7% |
| ZGPPISIDLPIFLLRKVIEIEKQEKEKQQAANNALLLATI (C-terminal amide) [SEQ ID NO 280] | 100 nM | 82.3% | 1000 nM | 11.8% |
| ZGPPISIDLPFQLLRKVIEIEKQEKEKQQAANNAQLLAQI (C-terminal amide) [SEQ ID NO 276] | 22.1 nM | 100% | 1000 nM | 75.7% |
| ZGPPISIDLPQILLRKVIEIEKQEKEKQQAANNARLLARI (C-terminal amide) [SEQ ID NO 294] | 100 nM | 100% | 1000 nM | 13.6% |
| ZGPPISIDLPTWLLRKVIEIEKQEKEKQQAANNARLLARI (C-terminal amide) [SEQ ID NO 291] | 100 nM | 63.8% | 1000 nM | 4.75% |
| ZGPPISIDLPIFLLRKMIEIEKQEKEKQQAANNARLLARI (C-terminal amide) [SEQ ID NO 282] | 25.8 nM | 60.8% | 1000 nM | 21.8% |
| ZGPPISIDLPFQLLRKVIEIEKQEKEKQQAANNAQLLAHI (C-terminal amide) [SEQ ID NO 273] | 31.3 nM | 100% | 1000 nM | 59.3% |
| ZGPPISIDLPFQLLRKVIEIEKQEKEKQQAANNARLLARI (C-terminal amide) [SEQ ID NO 279] | 13.1 nM | 100% | 1000 nM | 93% |
| NDDPPISIDLPTYLLRNMIEMARIENEREQAGLNAKYLAEV-NH2 [SEQ ID NO 266] | 100 nM | 19.4% | 1000 nM | 4.45% |
| NDDPPISIDLPLYLLRNMIEMARIENEREQAGLNAKYLAEV-NH2 [SEQ ID NO 271] | 48.1 nM | 69% | 815 nM | 80.7% |
| ZGPPISIDLPTWLLRKVIEIEKQEKEKQQAANNRLLLDTI (C-terminal amide) [SEQ ID NO 284] | 100 nM | 100% | 1000 nM | 27.7% |
| ZGPPISIDLPQILLRKVIEIEKQEKEKQQAANNRLLLDTI (C-terminal amide) [SEQ ID NO 293] | 40.3 nM | 87% | 520 nM | 95.3% |
| ZGPPISIDLPYQLLRKMIEIEKQEKEKQQAANNARLLAR (C-terminal amide) [SEQ ID NO 287] | 11.3 nM | 100% | 1000 nM |  |
| ZGPPISIDLPYQLLRKMIEIEKQEKEKQQAANNARLLAR (C-terminal amide) [SEQ ID NO 288] | 14.7 nM | 100% | 838 nM |  |
| NDDPPISIDLPLQLLRNMIEMARIENEREQAGLNAKYLAEV-NH2 [SEQ ID NO 270] | 100 nM | 19.3% | 1000 nM | 7.85% |
